# According to the supplement of paper PMC9170038:
# Test system: MS2 coat protein
# Assay: apparent KD of MS2 coat protein; designed switch direction (-1 OFF switch, 1 ON switch): -1; higher = weaker reporter binding
# Outline: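 For each design, the apparent KD is the median over clusters of curves fitted to normalised cluster fluorescence. Clusters held RNA switches with common flanks, transcribed on Illumina chips by stalled E. coli RNA polymerase. These were titrated with SNAP-549-labelled MS2 coat protein, doubling from 0.7 or 1.5 nM to 3 µM, without input, with 200 uM small-molecule ligand, or with an oligonucleotide input.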
# [1] = Eterna round: R95, input ligand: FMN 200 uM
# [2] = Eterna round: R95, input ligand: microRNA oligo, concentration not stated
# [3] = Eterna round: R95, input ligand: none
# [4] = input ligand: microRNA oligo, concentration not stated
Sequence,apparent KD of MS2 coat protein [1] [nM],apparent KD of MS2 coat protein [2] [nM],apparent KD of MS2 coat protein [3] [nM],apparent KD of MS2 coat protein [4] [nM],apparent KD of MS2 coat protein (input ligand: FMN 200 uM) [nM],apparent KD of MS2 coat protein (input ligand: none) [nM]
AAAAAACAAGGAUAUACGGAUGAAGAGAGUCUUAAUUUUUGACAUGAGGAUCACCCAUGUAGAAGGUGUUAAAA [JR_Exclusion2_Sub017] (puzzle: Exclusion 2),58.9,44.4,50.5,,,
AAAAAACAUGAGGAUCACCCAUGUCAGGAUAUCCGAAAAGAAAAAUAAAAAGAAAAAGGGAGAAGGGACAAAAA [April's ex-date #3] (puzzle: Exclusion 1),45.6,48.6,61.3,,,
AAAAAGAUAGGAUAUACAAUAAAAUAAAAUAAAAUAAAUACACAUGAGGAUCACCCAUGUAGAAGGAUCGAAAA [Exclusion 2 #1] (puzzle: Exclusion 2),26.6,25,31.2,,,
AAAAAGGCAGGAUAUACAUGAGGAUCACCCAUGUGAAAAAACAAAAAAAAAAAAAAAGGUAGAAGGGCCGAAAA [Science Triplets #3] (puzzle: Exclusion 3),22.1,29,27.6,,,
"AAAAAGUCAGGAUAUGCGAAGGCGUCUGAUAGACGAGGCUAGCAGAAGGGACAUGAGGAUCACCCAUGUAAAGA [Mat - Exclusion 4 - D82] (Eterna round: R96, puzzle: Exclusion 4)",,,,19.4,,
"AAAAAGUCAGGAUAUGUAGCAAAAGGUGAUCAAAAAAAGCUACAGAAGGGACAUGAGGAUCACCCAUGUAAAAA [Ex4: 937] (Eterna round: R96, puzzle: Exclusion 4)",,,,162,284,183
"AAAACAAACUUUUUGCUCGUCUUAUAUGACGCUCGAGUCACAUGAGGAUCACCCAUGUCUUCCUGUUUGAUAGUUGA [JR_SV3TOV2_Sub055] (puzzle: Sensor v3, turn-off variant 2)",113,113,142,,,
"AAAACGUGAGGAUAUCCAAUAUAUGACAUGAGGAUCACCCAUGUUUCCACUCGUACCUCCGGAGAAGGCACAAUAA [Ex5 #76] (Eterna round: R97, puzzle: Exclusion 5)",,,,,37.6,56.2
"AAAAGCCUAGGAUAUACUUGAGGAUCACCCAAGUAGGGUCCCAUGGACCCGUCCUCGUGUAGAAGGAGGAAAAG [Dierlabe] (Eterna round: R97, puzzle: Exclusion 3)",,,,,156,60.5
"AAAAGCGUCACAGGAUAUUCAGGCGACGCCAAAGAAGAAGGGUGAGGCACAAACAUGAGGAUCACCCAUGUGGUCCUCUCCCGA [Vebiquti] (Eterna round: R96, puzzle: Exclusion NG 1)",,,,11,19.2,15.6
"AAAAGGCAGGGAGGAUAUGCUUACCUGGGUCGUCUUCAGACAUGAGGAUCACCCAUGUAGUCGACGCAGAAGGCCCUCAAAGCC [Mat - Exclusion NG 2 - Mod of JL - D60] (Eterna round: R96, puzzle: Exclusion NG 2)",,,,38.9,82.6,54.1
"AAAAGGCAGGGAGGAUAUGCUUGCCUGGGUCGUCUUCAAACAUGAGGAUCACCCAUGUAGUCGACGCAGAAGGCCCUCAAAGCC [Mat - Exclusion NG 2 - Mod of JL - D61] (Eterna round: R96, puzzle: Exclusion NG 2)",,,,12.1,65.2,16.5
AAAAGGUCAGGAUAUCGACGCGGUUGGGAGGCAGGUCCGCGCGAGAAGGGACAUGAGGAUCACCCAUGUUAAAA [Excls4-IV] (puzzle: Exclusion 4),33.5,22.8,26.4,,,
"AAAAGGUGAGGAUAUCCGACGUUGCACUUGAGGAUCACCCAAGUUCCUCGCGUGCUUUUAGGAGAAGGCACAAAAC [Tegezaza] (Eterna round: R97, puzzle: Exclusion 5)",,,,,77.3,982
"AAAAUAAAGGCAGGAUAUCGGAGGCGCUGGCACCGAGAAGGGCCAGGGUGUCGUCAAAACAUGAGGAUCACCCAUGUGAGUGAC [Maanated] (Eterna round: R96, puzzle: Exclusion NG 1)",,,,12.7,17.6,23
"AAAAUGUGAGGAUAUCCAAUAUAUGACAUGAGGAUCACCCAUGUUUCCACUCGUACCUCCGGAGAAGGCACUAAAA [Ex5 #42] (Eterna round: R97, puzzle: Exclusion 5)",,,,,21.9,29
"AAACAAGCAACGAGAUCCCACAUGAGGAUCACCCAUGUCAACUGGAGUUUUAAAUCUUUAGGCUCGUUUUAUAACAA [S_tov1_V1.2] (Eterna round: R97, puzzle: Sensor, turn-off variant 1)",,,,,50.4,56.8
"AAACCCUGAGGAUAUACAUAACAACAAAUCCUCACGUGCCAACAUGAGGAUCACCCAUGUAGAAGGCAGGCCAA [Mod R3 Insanara 5 - Jieux - Exclusion 2] (Eterna round: R97, puzzle: Exclusion 2)",,,,,49.2,15.8
"AAACCCUGAGGAUAUGCAUAACAACAAAGCCUCACGUGCCAACAUGAGGAUCACCCAUGUAGAAGGCAGGCCAA [Mod R3 Insanara 15 - Jieux - Exclusion 2] (Eterna round: R97, puzzle: Exclusion 2)",,,,,20.7,15.3
"AAACUACUUGGGCUGACACAUGAGGAUCACCCAUGUGGAGGGCAGGAUAUGCCCAUAAAAUUGGCGCAGAAGGGCCCACGUAGA [Tegesousbe] (Eterna round: R96, puzzle: Exclusion NG 3)",,,,6.89,17.1,13.9
"AAACUCUAAGUCAGGAUAUGGCAACGCUAAGGCGACCAGAAGGGACUUGAGGAUCACCCAAGUACCGCUUGUGG [Orardi] (Eterna round: R97, puzzle: Brourd's mod of Exclusion 4)",,,,,409,42.7
AAACUGUGAGGAUAUGGUGAGUAGUGCCUGAGCGCUGCUCACCAGAAGGCACAUGAGGAUCACCCAUGUAUAAC [Mat - Exclusion 4 - Mod of JL - D5] (puzzle: Exclusion 4),,22.4,,,,
"AAAGUGCUGCGAGGAUAUACAUGAGGAUCACCCAUGUGGAUGUCUGAGGCAAAGCCUCAGACAAUGUAGAAGGCGCAGUACUAA [Mat - Exclusion NG 2 - Mod of JL - D56] (Eterna round: R96, puzzle: Exclusion NG 2)",,,,18.2,87.3,27
AAAGUGUGAGGAUAUCCGGGACUGGGCCGGGAGGUUCGGAAGGAGAAGGCACAUGAGGAUCACCCAUGUAACGG [Excls4-X] (puzzle: Exclusion 4),,46.9,,,,
"AAAUACGCUGAGGAUAUGCGGCGCACAAAAUAAGCAGAAGGCAGCACUUGAGGAUCACCCAAGUGGCCCGAGAA [Enusrees] (Eterna round: R97, puzzle: Exclusion 6)",,,,,15.5,8
